In the nanobody polyreactivity screen of Harvey et al. (2022):

Assay: yeast display, Sf9 membrane polyspecificity reagent, FACS + sequencing; frameworks hold sequencing errors
Procedure, shortened: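 Using colony PCR, genes from sorted yeast display clones were amplified, then sequenced on MiSeq at 2 × 250 and filtered by CDR length. The clones had been stained with 10% biotinylated, detergent-solubilized Sf9 membrane reagent for 1 hour at 4 °C and sorted by FACS into low and high (top ~1%) gates on anti-HA and streptavidin fluorescence. Polyreactivity labels come from the gate of origin.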

Sequence	polyreactivity (PSR sort gate)
QVQLVESGGGLVQAGGSLRLSCAASGSTFKSYVMGWYRQAPGKERELVAAISSGDSTYYADSVKGRFTISRDNAKNTVYLQMNSLKPEDTAVYYCAADPGYTVEPWEDDDWGQGTQVTVSS	low polyreactivity
QVQLVESGGGLVQAGGSLRLSCAASGSTFKSYVMGWYRQAPGKERELVAAISSGDSTYYADSVKGRFTISRDNAKNTVYLQMNSLKPEDTAVYYCNADVSLDDYDYWGQGTQVTVSS	low polyreactivity
QVQLVESGGGLVQAGGSLRLSCAASGSTFKVYAMGWYRQAPGKERELVAVISGGGRTNYADSVKGRFTISRDNAKNTVYLQMNSLKPEDTAVYYCAAQATYHRYYTYYYWGQGTKVTVSS	high polyreactivity
QVQLVESGGGLVQAGGSLRLSCAASGSTFKWNAMGWYRQAPGKERELVAAISKGSVNTYYADSVKGRFTISRDNAKNTVYLQMNSLKPEDTAVYYCAADRRYPALDYWGQGTQVTVSS	high polyreactivity
QVQLVESGGGLVQAGGSLRLSCAASGSTFKWYAMGWYRQAPGKERELVATISSGGSTNYADSVKGRFTISRDNAKNTVYLQMNSLKPEDTAVYYCAAANFKWGQGTQVTVTS	low polyreactivity
QVQLVESGGGLVQAGGSLRLSCAASGSTFKYNAMGWYRQAPGKERELVASISRSGGSTYYADSVKGRFTISRDNAKNTVYLQMNSLKPEDTAVYYCNVRRFVHYEYWGQGTQVTVSS	high polyreactivity
QVQLVESGGGLVQAGGSLRLSCAASGSTFKYNAMGWYRQAPGKERELVATISGTGGSTYYADSVKGRFTISRDNAKNTVYLQMNSLKPEDTAVYYCAARWGRSQLRYYYWGQGTQVTVSS	high polyreactivity
QVQLVESGGGLVQAGGSLRLSCAASGSTFKYYVMGWYRQAPGKERELVAAITRSGSTNYADSVKGRFTISRDNAKNTVYLQMNSLKPEDTAVYYCAAERALSRYGYWGQGTQVTVSS	low polyreactivity
QVQLVESGGGLVQAGGSLRLSCAASGSTFLAYAMGWYRQAPGKERELVAAISSRGSRTYYADSVKGRFTISRDNAKNTVYLQMNSLKPEDTAVYYCATPYSRSYSYRYDYWGQGTQVTVSS	high polyreactivity
QVQLVESGGGLVQAGGSLRLSCAASGSTFLGNAMGWYRQAPGKERELVATITGSSGSTYYADSVKGRFTISRDNAKNTVYLQMNSLKPEDTAVYYCNTVYNYWDGYDYWGQGTQVTVSS	low polyreactivity
QVQLVESGGGLVQAGGSLRLSCAASGSTFLGNAMGWYSQAPGKERELVASISWSGGSTSYADSVKGRFTISRDIAKNTVYLLMNSLKPEDTAVYYCAVDWRYTGRTYYGMESWGQGTQVTVSS	low polyreactivity
QVQLVESGGGLVQAGGSLRLSCAASGSTFLHYAMGWYRQAPGKERELVAAISFSGVRTYYADSVKGRFTISRDNAKNTVYLQLNSLKPEDNAVYYCDADGHHADYDYLGQGTQVTVSS	low polyreactivity
QVQLVESGGGLVQAGGSLRLSCAASGSTFLINAMGWYRQAPGKEREFVAAITSSGGTTYYADSVKGRFTISRDNAKNTVYLQMNSLKPEDTAVYYCAAVSRSRREKKFDYWGQGTQVTVSS	low polyreactivity
QVQLVESGGGLVQAGGSLRLSCAASGSTFLINAMGWYRQAPGKERELVAAITGRGGSTYYADSVKGRFTISRDNAKNTVYLQMNSLKPEDTAVYYCNAERLGTGYRYDYWGQGTQVTVSS	high polyreactivity
QVQLVESGGGLVQAGGSLRLSCAASGSTFLKNAMGWYRQAPGKERELVAAISYSTTRTYYAVSVKGRFTISRDNAKNTVYLQINSLKPEDTAVYYCAARYDRSSKRNYWGQGTQVTVSS	low polyreactivity
QVQLVESGGGLVQAGGSLRLSCAASGSTFLKYAMGWYRQAPGKERELVAAISRSGTSTYYADSVKGRFTISRDNAKNTVYLQMNSLKPEDTAVYYCAARWIRSNTQYDYWGQGTQVTVSS	high polyreactivity
QVQLVESGGGLVQAGGSLRLSCAASGSTFLNYAMGWYRQAPGKERELVAAISGRGGRTYYADSVKGRFTISRDNAKNTVYLQMNSLKPEDTAFYYCAARIWVSYTSYDYWGQGTQVTVSS	high polyreactivity
QVQLVESGGGLVQAGGSLRLSCAASGSTFLNYAMGWYRQAPGKERELVAAISGRGGRTYYADSVKGRFTISRDNAKNTVYLQMNSLTPEDTAVYYCAARKWVSYTSYDYWGQGTQVTVSS	high polyreactivity
QVQLVESGGGLVQAGGSLRLSCAASGSTFLQNAMGWYRQAPGKEREFVAAISYTGANTYYADSVKGRFTISRDNAKNTVYLQMNSLKPEDTAVYYCAAYARGVRRYRRYDYWGQGTQVTVSS	high polyreactivity
QVQLVESGGGLVQAGGSLRLSCAASGSTFLQNAMGWYRQAPGKERELVAAISRSGGSTYYADSVKGRFTISRDNAKNTVYLQMNSLKPEDTAVYYCAAGGRRYDDDYWGQGTQVTVSS	high polyreactivity
QVQLVESGGGLVQAGGSLRLSCAASGSTFLRYAMGWYRPAPGKERELVAAISWSGGTTYYADSVKGRFTISRDNAKNTVYLQMNSLKPEDTAVYYCNTASWRAQYYYWGQGTQVTVSS	high polyreactivity
QVQLVESGGGLVQAGGSLRLSCAASGSTFLRYAMGWYRQAPGKERELVAGIRYSGGTYYADSVKGRFTISRDNAKNTVYLQMNSLKPEDTAVYYCAAYWKLGGFRYGYWGQGTQVTVSS	high polyreactivity

Sequence	polyreactivity (PSR sort gate)
QVQLVESGGGLVQAGGSLRLSCAASGSTFLSNAMGWYRQAPGKERELVASIDWSGVSTYYADSVKGRFTISRDNAKNTVYLQMNSLNPEDTAVYYCAAEQVQSWDAYYQVEEYDYWGQGTQVTVSS	low polyreactivity
QVQLVESGGGLVQAGGSLRLSCAASGSTFLSYAMGWYRQAPGKERELVAAITSGGRTYYADSVKGRFTISRDNAKNTVYLQMNSLKPEDTAVYYCAAVTGRFGYWGQGTQVTVSS	high polyreactivity
QVQLVESGGGLVQAGGSLRLSCAASGSTFLTNAMGWYRQAPGKERELVVAIRTSGGSTYYADSVKGRFTISRDNAKNTVYLQMNSLKPEDTAFYYCAASYRRRRFSEYYYWGQGTQVTVSS	high polyreactivity
QVQLVESGGGLVQAGGSLRLSCAASGSTFLTNVMGWYRPAPGQERELVAAITIGGSTNYADSVKGRFTISRDNAKNTVYLQMNILKPEDTAVYYCATDIRRKPRYVDYEYWGQGTQVTVSS	low polyreactivity
QVQLVESGGGLVQAGGSLRLSCAASGSTFLVYAMGWYRQAPGKERELVAAITQIDGSTYYADSVKGRFTISRDNAKNTVYLQMNSLKPEDTAVYYCAARYFWTYEYDYWGQGTQVTVSS	low polyreactivity
QVQLVESGGGLVQAGGSLRLSCAASGSTFLYNAMGWYRQAPGKEREFVAAISGSGGTTYYADSVKGRFTISRDNAKNTVYLQMNSLNPEDTAVYYCAVSQSWYWYYASDYWGQGTQVTVSS	low polyreactivity
QVQLVESGGGLVQAGGSLRLSCAASGSTFLYVMGWYRQAPGKERELVAAISESGGSTYYADSVKGRFTISRDNAKNTLYLQMNSLKPEDTAVYYCAADLPTGLQYRYYRVDYWGQGTQVTVSS	low polyreactivity
QVQLVESGGGLVQAGGSLRLSCAASGSTFLYYAMGWYRQAPGKERELVAAITSSGGRTYFADSVKGRFTISRDNAQNTVYLQMNSLQPEDTAVYYCARGWPRREQSEYDYWGQGTQVTVSS	high polyreactivity
QVQLVESGGGLVQAGGSLRLSCAASGSTFLYYDMGWYRQAPGKERELVATITRGGSTYYADSVKGRFTISRDNAKNTVYLQMNSLKPEDTAVYYCAAYRWGILSAYYYAWYGYWGQGTQVTVSS	low polyreactivity
QVQLVESGGGLVQAGGSLRLSCAASGSTFLYYTMGWYRQAPGKERELVAAITSGGDTNYADSVKGRFTISRDNAKNTVYLQINSLKPEDTAVYYCNAEYTWSGTKIYTYKYDYWGQGTQVTVSS	low polyreactivity
QVQLVESGGGLVQAGGSLRLSCAASGSTFNAYAMGWYRQAPGKERELVAAISSSGGRTHYADSVKGRFTISRDNAKNTVYLQMNSLKPEDTAVFYCNVGKRFVRNDYWGQGTQVTVSS	high polyreactivity
QVQLVESGGGLVQAGGSLRLSCAASGSTFNDNAMGWYRQAPGKERELVAGISYSGGSTYYADSVKGRFTISRDNAKNTVYLQMNSLKPEDTAVYYCNADVTGLSQFGYWGQGTQVTVSS	low polyreactivity
QVQLVESGGGLVQAGGSLRLSCAASGSTFNDYVMGWYRQAPGKERELVAAISRSGGSTYYADSVKGRFTISRDNAKNTVYLQMNSLKPEDTAVYYCAAASPGPWRYDYWGQGTQVTVSS	high polyreactivity
QVQLVESGGGLVQAGGSLRLSCAASGSTFNFNAMGWYRQAPRKERELVAAISSSGGSTYYADSVKGRFTISRDNAKNTVYLQMNSLKPEDTAVYYCATVRRKSPLYYYWGQGTQVTVSS	high polyreactivity
QVQLVESGGGLVQAGGSLRLSCAASGSTFNFYAMGWARQAPGKERELVAAIRQSSGRTYYADSVKGRFTISRDNAKNTVYLQMNSLKPEDTAVYYCNARVPRYNGGSTMEYWGQGTQVTVSS	high polyreactivity
QVQLVESGGGLVQAGGSLRLSCAASGSTFNGYVMGWYRQAPGKERELVAAISRSGGSTYYADSVKGRFTISRDNAKNNVYLQMYSLKPEDTAVYSCAKGGYQHYWGQGTQVTVSS	high polyreactivity
QVQLVESGGGLVQAGGSLRLSCAASGSTFNGYVMGWYRQAPGKERELVAAISRSGGSTYYADSVKGRFTISRDNAKNTVYLQMYSLKPEDTAVYYCAKGGYQHYWGQGTQVTVSS	high polyreactivity
QVQLVESGGGLVQAGGSLRLSCAASGSTFNINVMGWYRQAPGKERELVASISTGDITYYADSVKGRFTISRDNAKNTVYLQMNSLKPEDTAVYYCNAEDDLYWWVWYAVGEEYWGQGTQVTVSS	low polyreactivity
QVQLVESGGGLVQAGGSLRLSCAASGSTFNIYAMGCYRQSPGKERELVAAIRSGGSTYYADSVKGRFTISRDNAKNTVYLQMNSLKPEDTAVYYCGAAVKRALDYWGQGTQVTVSS	high polyreactivity
QVQLVESGGGLVQAGGSLRLSCAASGSTFNIYVMGWYRQAPGKERELVAAITTSGRTYYADSVKGRFTISRDNAKNTVYLQMNSLKPEDTAVYYCAAVPVRYRYSYGYYYWGQGTQVTVSS	high polyreactivity
QVQLVESGGGLVQAGGSLRLSCAASGSTFNKYAMGWYRQAPGKERELVAAISSSGGSTYYADSVKGRFTISRDNAKNTVYLQMNSLKPEDTAVYYCNARRTYSVPARRYYYWGQGTQVTVSS	high polyreactivity
